In the test the target is KS17 N2 NA (recombinant N2 neuraminidase head of H3N2 A/Kansas/14/2017) (Influenza A virus H3N2 A/Kansas/14/2017). Briefly: cryo-EM structure.

“KS17 N2 NA (recombinant N2 neuraminidase head of H3N2 A/Kansas/14/2017) (enzyme)”: the stoichiometry N was determined as 4.

One may read the stoichiometry N as a count of units in the complex or per binding partner.

(Values after publication PMC12316933.)
